According to PMC9668932:

Biological target: heat shock protein HSP 90-beta, full length, His6-tagged (human) (UniProt P08238)
Assay: cryo-EM structure; ternary Hsp90-XAP2-AHR complex, co-expressed in Sf9 and co-purified, with indirubin at 5x molar excess; 20 mM Bis-Tris-HCl pH 7.0, 50 mM NaCl, 10 mM KCl, 10 mM MgCl2, 20 mM Na2MoO4, 2 mM BME; global map 2.85 Å, focused map 4.07 Å

Chain of heat shock protein HSP 90-beta, full length, His6-tagged, P08238 1-724 (natural protein; other documents disagree on this pair) (P08238 whole entry): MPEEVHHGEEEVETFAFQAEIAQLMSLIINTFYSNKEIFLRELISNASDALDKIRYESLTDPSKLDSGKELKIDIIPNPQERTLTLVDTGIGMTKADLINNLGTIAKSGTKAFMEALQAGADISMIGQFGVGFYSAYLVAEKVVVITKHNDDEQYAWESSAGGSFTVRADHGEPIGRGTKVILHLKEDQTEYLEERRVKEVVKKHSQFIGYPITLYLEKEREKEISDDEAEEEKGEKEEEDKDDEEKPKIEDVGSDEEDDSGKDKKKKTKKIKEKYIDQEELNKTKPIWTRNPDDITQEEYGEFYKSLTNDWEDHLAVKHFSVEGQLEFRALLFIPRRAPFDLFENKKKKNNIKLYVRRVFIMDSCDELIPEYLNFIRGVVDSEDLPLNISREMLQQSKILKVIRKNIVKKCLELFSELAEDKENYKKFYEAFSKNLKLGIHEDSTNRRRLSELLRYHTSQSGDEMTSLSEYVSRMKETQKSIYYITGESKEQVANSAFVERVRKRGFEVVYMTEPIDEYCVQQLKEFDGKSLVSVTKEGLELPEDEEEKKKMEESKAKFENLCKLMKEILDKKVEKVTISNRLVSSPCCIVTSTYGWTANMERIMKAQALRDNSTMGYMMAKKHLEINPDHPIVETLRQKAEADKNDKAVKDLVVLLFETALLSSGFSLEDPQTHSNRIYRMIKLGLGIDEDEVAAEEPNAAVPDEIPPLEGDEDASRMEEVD

## heat shock protein HSP 90-beta, full length, His6-tagged, P08238 1-724 (natural protein; other documents disagree on this pair)
  stoichiometry N: 2
